Measurements taken from PMC5834214 (PLoS Pathogens, 2018).

Tests used:
[1] = target: LCMV NP (Strep-NP) (Lymphocytic choriomeningitis virus, UniProt P09992)
[2] = target: eGFP (Aequorea victoria, UniProt P42212, F64L/H231L/S65T)

Chain of LCMV NP (Strep-NP) (P09992 whole entry): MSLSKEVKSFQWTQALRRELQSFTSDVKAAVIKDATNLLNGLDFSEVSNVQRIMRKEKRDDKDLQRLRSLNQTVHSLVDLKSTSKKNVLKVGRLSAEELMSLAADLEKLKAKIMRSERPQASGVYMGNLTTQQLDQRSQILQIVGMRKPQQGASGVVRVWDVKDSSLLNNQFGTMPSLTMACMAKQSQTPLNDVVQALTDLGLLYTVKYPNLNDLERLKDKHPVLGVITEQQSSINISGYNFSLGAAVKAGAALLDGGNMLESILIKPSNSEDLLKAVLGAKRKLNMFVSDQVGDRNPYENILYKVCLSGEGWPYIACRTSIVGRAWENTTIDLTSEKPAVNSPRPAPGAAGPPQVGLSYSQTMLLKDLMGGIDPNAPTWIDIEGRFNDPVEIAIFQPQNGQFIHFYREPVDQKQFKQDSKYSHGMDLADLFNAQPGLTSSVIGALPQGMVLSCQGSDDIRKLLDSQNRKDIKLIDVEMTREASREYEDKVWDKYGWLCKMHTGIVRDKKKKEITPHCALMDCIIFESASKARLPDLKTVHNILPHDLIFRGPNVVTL

B1: HNRNPC (protein, UniProt P07910 2-306, looked up)
Heterogeneous nuclear …: ASNVTNKTDPRSMNSRVFIGNLNTLVVKKSDVEAIFSKYGKIVGCSVHKGFAFVQYVNERNARAAVAGEDGRMIAGQVLDINLAAEPKVNRGKAGVKRSAAEMYGSVTEHPSPSPLLSSSFDLDYDFQRDYYDRMYSYPARVPPPPPIARAVVPSKRQRVSGNTSRRGKSGFNSKSGQRGSSKSGKLKGDDLQAIKKELTQIKQKVDSLLENLEKIEKEQSKQAVEMKNDKSEEEQSSSSVKKDETNVKMESEGGADDSAEEGDLLDDDDNEDRGDDQLELIKDDEKEAEEGEDDRDSANGEDDS
In the case of B1, the “Spectral count NP Average” value [1] is reported as 4.5, the “Spectral count NP Exp. 1” value [1] is reported as 4 and the “Spectral count NP Exp. 2” value [1] is reported as 5. The “Spectral count eGFP Average” value [2] was 0, the “Spectral count eGFP Exp. 1” value [2] was 0 and the “Spectral count eGFP Exp. 2” value [2] was 0.
